Read-outs that look alike come from different tables or passages of the source.
Legend:
[1] = biological target: T1, S2hlx-15; assay: SPR, mAb captured, scaffold as analyte
T1 chain: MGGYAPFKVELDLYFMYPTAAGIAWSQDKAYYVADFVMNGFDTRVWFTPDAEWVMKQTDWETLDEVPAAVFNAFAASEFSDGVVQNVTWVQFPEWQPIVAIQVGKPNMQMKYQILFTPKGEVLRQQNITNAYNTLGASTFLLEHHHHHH

[2] = biological target: T2, S2hlx-Ex8-Trx; assay: SPR, mAb captured, scaffold as analyte
T2 chain: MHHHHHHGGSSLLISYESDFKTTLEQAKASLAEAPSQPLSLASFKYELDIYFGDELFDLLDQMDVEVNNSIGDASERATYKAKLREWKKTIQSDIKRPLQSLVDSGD

[3] = biological target: T3, S2hlx-Ex25; assay: SPR, mAb captured, scaffold as analyte
T3 chain: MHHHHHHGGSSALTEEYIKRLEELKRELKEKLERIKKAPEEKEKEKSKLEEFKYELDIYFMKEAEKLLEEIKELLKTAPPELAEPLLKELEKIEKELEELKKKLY

[4] = biological target: T4, S2hlx-Ex34; assay: SPR, mAb captured, scaffold as analyte
T4 chain: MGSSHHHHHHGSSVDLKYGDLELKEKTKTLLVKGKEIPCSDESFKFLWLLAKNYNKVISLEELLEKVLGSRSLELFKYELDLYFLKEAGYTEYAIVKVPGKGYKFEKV

[5] = biological target: T5, S2hlx-Ex37; assay: SPR, mAb captured, scaffold as analyte
T5 chain: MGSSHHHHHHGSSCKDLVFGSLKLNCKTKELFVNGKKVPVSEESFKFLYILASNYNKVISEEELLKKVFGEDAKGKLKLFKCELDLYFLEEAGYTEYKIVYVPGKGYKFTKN

[6] = biological target: T6, S2hlx-Ex54; assay: SPR, mAb captured, scaffold as analyte
T6 chain: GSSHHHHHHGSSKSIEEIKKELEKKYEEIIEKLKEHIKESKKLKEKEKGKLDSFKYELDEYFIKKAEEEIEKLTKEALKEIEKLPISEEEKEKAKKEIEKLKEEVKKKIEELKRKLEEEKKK

[7] = biological target: HKU-1 spike (2P) (human coronavirus HKU1); assay: ELISA, coated spike, mAb titrated
[8] = biological target: T1, S2hlx-15; assay: ELISA, coated antigen, mAb titrated
[9] = biological target: CC19 LA; assay: ELISA, coated antigen, mAb titrated
[10] = biological target: T7, S2hlx-Ex15; assay: SPR, mAb captured, antigen as analyte
T7 chain: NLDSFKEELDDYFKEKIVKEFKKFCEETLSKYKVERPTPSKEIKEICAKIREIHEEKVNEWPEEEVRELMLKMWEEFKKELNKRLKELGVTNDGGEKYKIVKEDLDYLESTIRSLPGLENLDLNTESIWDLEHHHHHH

[11] = biological target: T8, S2hlx-Ex17; assay: SPR, mAb captured, antigen as analyte
T8 chain: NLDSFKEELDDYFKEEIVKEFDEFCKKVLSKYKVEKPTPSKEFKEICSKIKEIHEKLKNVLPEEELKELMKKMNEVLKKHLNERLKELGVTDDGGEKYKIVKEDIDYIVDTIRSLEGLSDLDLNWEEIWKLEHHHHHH

[12] = biological target: T9, S2hlx-Ex20; assay: SPR, mAb captured, antigen as analyte
T9 chain: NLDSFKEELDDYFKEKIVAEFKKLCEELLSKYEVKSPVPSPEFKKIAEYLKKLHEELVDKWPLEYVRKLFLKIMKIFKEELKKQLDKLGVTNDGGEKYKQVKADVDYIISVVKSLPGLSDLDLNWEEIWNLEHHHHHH

[13] = biological target: T10, S2hlx-1; assay: SPR, mAb captured, antigen as analyte
T10 epitope scaffold: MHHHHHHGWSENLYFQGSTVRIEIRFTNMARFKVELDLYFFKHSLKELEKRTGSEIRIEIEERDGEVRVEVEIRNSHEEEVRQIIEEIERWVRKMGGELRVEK

[14] = biological target: T11, S2hlx-8; assay: SPR, mAb captured, antigen as analyte
T11 epitope scaffold: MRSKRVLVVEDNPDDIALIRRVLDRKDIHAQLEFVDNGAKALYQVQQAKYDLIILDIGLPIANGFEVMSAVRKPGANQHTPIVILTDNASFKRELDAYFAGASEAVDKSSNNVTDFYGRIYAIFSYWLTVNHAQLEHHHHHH

[15] = biological target: T12, S2hlx-13; assay: SPR, mAb captured, antigen as analyte
T12 epitope scaffold: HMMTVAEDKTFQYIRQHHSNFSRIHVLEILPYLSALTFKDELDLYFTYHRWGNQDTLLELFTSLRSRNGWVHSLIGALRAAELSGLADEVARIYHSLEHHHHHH

[16] = biological target: S2hlx-14; assay: SPR, mAb captured, antigen as analyte
[17] = biological target: S2hlx-4; assay: SPR, mAb captured, antigen as analyte
S2hlx-4, sequence (chain, as listed by the source): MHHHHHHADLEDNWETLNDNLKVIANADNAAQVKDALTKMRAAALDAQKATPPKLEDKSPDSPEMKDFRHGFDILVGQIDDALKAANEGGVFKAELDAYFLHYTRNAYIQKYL

[18] = biological target: T7, S2hlx-Ex15; assay: SPR, mAb captured, antigen as analyte
[19] = biological target: T8, S2hlx-Ex17; assay: SPR, mAb captured, antigen as analyte
[20] = biological target: T9, S2hlx-Ex20; assay: SPR, mAb captured, antigen as analyte
[21] = biological target: T2, S2hlx-Ex8-Trx; assay: SPR, mAb captured, antigen as analyte
[22] = biological target: T4, S2hlx-Ex34; assay: SPR, mAb captured, antigen as analyte
[23] = biological target: S2hlx-4; assay: SPR, mAb captured, antigen as analyte; remark: listed apart in the source
[24] = biological target: S2hlx-Ex8-Trx F1148A; assay: ELISA; antigen coated, mAb titrated
[25] = biological target: T4, S2hlx-Ex34; assay: ELISA; antigen coated, mAb titrated

B1: S2P6 mAb (antibody, V domains shown)
VH: EVQLVQSGAEVKKPGASVKVSCKASGYTFTSQYMHWVRQAPGQGLEWIGIINPSGVHTSYAQKFQGRVTLTRDTSTSTLYMELSSLRSEDTAVYYCARGSPKGAFDYWGQGTLVTVSS
VL: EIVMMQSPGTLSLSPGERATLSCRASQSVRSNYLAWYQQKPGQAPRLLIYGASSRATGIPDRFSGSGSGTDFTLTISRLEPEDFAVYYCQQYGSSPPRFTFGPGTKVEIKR
B1 gave a Kd [1] of 0.7 nM, a Kd [2] of 330 nM and a Kd [3] of 612 nM. For the same binder, the Kd [4] was 82 nM, the Kd [5] was 664 nM and the Kd [6] was 45 nM. The “EC50 (read off the curve)” value [7] was roughly 0.3 µg/mL, the “EC50 (read off the curve)” value [8] was roughly 0.1 µg/mL and the “EC50 (read off the curve)” value [9] was roughly 0.02 µg/mL. It also gave a Kd [10] of 6 nM, a Kd [11] of 29.6 nM and a Kd [12] of 10.7 nM. It also gave a Kd [13] of 52.8 nM, a Kd [14] of 63 nM and a Kd [15] of 83 nM. It also gave a Kd [16] of 30 nM, a Kd [17] of 47.7 nM and a Kd [18] of 4 nM. The Kd [19] was 29.6 nM, the Kd [20] was 10.7 nM and the Kd [21] was 568 nM. The Kd [22] was 143 nM, the Kd [23] was 47.7 nM and the “EC50 (read off the curve)” value [24] was roughly 0.04 µg/mL. The “EC50 (read off the curve)” value [25] was roughly 0.02 µg/mL.

From patent US20240285753A1 (DUKE UNIVERSITY, published 2024)
